Data reported in patent US20180142032A1 (Sanofi, published 2018).

Experiments:
[1] = target: T1, human LAMP1 at the cell surface (human, UniProt P11279 29-417); test: flow cytometry, HCT116 stable clone
T1 construct: native on tumour cells (PDX, Colo205, SW480, LS174T) or from the cloned CDS NM_005561.3 in HEK293 and HCT116; signal peptide 1-28 left out; also called huLAMP1; full length human LAMP1
T1 sequence: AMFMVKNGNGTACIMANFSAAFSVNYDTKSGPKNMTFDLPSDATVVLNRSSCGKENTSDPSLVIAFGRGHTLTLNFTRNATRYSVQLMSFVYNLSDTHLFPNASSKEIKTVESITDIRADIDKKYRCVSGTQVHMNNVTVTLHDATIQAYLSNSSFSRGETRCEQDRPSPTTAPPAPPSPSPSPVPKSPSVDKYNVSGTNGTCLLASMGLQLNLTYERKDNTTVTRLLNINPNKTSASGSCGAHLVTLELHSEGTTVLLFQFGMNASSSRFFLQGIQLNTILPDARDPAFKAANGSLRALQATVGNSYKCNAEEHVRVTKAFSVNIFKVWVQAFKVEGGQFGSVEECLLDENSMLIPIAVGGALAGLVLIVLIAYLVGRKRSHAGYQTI
Text: (§1) HCT116 stable clone was obtained as described above. HEK293 cells were infected by a lentiviral vector allowing stable integration of the human or the cynomolgus LAMP1 CDS in genomic DNA of cells. Individual clones with different densities of cynomolgus LAMP1 cell surface localization were derived from a pool of HEK293 infected cells. Protocol as described in example above. EC₅₀ values were estimated using BIOST@T-SPEED software.

[2] = target: T2, cynomolgus monkey LAMP1 at the cell surface (cynomolgus monkey, UniProt P11279 29-417 (human entry)); test: flow cytometry, HEK293 stable clone
T2 construct: also called cynoLAMP1; cynomolgus LAMP1
T2 chain: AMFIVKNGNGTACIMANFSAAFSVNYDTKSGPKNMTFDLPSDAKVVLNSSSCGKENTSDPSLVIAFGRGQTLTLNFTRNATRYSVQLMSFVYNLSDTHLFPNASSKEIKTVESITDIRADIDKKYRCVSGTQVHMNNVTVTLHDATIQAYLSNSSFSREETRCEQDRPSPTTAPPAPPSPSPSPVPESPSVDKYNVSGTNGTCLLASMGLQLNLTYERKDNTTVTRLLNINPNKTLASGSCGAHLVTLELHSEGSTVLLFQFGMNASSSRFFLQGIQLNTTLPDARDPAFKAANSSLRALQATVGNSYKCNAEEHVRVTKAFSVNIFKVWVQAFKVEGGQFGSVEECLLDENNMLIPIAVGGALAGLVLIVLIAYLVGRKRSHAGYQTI
Text: as §1

mLAMP1_ΔGYQTI = target: T3, mLAMP1_ΔGYQTI (mouse, UniProt P11438 25-369); test: flow cytometry, transfected 293-F cells
T3 construct: on cells; also called pXL6009; murine LAMP1; not shown: murine transmembrane domain and cytoplasmic tail with GYQTI replaced by 5 Ala
T3 sequence: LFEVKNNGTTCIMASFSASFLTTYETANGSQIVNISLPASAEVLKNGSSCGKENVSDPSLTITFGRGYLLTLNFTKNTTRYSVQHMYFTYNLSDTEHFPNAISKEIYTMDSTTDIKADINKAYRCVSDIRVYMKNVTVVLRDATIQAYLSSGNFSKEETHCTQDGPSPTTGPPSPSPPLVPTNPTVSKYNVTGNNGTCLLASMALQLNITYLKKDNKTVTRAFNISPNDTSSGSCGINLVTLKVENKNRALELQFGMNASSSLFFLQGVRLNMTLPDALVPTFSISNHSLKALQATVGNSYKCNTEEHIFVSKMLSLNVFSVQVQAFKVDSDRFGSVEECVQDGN

LAMP1_mseq4_ΔGYQTI = target: T4, LAMP1_mseq4_ΔGYQTI (human; mouse); test: flow cytometry, transfected 293-F cells
T4 construct: on cells; also called pXL6015

hLAMP1_ΔGYQTI = target: T5, hLAMP1_ΔGYQTI (human, UniProt P11279 29-412); test: flow cytometry, transfected 293-F cells, experiment 1
T5 construct: also called pXL5626
T5 sequence: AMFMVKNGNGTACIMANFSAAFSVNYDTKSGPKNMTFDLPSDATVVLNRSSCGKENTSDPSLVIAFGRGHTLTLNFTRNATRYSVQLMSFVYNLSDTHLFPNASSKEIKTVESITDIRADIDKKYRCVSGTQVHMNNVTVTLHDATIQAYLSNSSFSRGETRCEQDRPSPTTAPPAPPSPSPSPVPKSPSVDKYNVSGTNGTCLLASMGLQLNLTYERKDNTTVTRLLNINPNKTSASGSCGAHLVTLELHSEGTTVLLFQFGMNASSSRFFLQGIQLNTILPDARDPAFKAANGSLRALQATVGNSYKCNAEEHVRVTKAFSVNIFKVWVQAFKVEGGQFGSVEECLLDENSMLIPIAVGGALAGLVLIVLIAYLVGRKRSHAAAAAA

[3] = target: T1, human LAMP1 at the cell surface; test: flow cytometry, HCT116 stable clones; human LAMP1 on recombinant HCT116 stable clones
Method: (§2) HCT116 cells were infected by a lentiviral vector allowing stable integration of the human or the cynomolgus LAMP1 CDS in genomic DNA of cells. Individual clones with different densities of human or cynomolgus LAMP1 cell surface localization were derived from a pool of HCT116 infected cells. […] 100 μL/well of goat anti-human IgG conjugated with Alexa488 (Invitrogen; # A11013) was added for 1 h at 4° C. and washed two times with PBS 1% BSA. The antibody binding was evaluated after centrifugation and resuspension of cells in 100 μl fixing solution (paraformaldehyde at 4% in PBS). Samples were read using Galaxy® Flow Cytometry System (Partec). EC50 values were estimated using BIOST@T-SPEED software.

[4] = target: T1, human LAMP1 at the cell surface; test: cell-based or functional assay
[5] = target: T1, human LAMP1 at the cell surface; test: flow cytometry, HCT116 huLAMP1 clone 8
Method: as §2

[6] = target: T2, cynomolgus monkey LAMP1 at the cell …; test: flow cytometry, HEK293 cynoLAMP1 clone 44

B1: MAb3 (antibody, V domains shown)
VH: QIQLVQSGPELKKPGETVKISCKASGYIFTNYGMNWVKQAPGKGLKWMGWINTYTGESRYADDFKGRFALSLETSASTAYLQINNLENEDMATYFCAREDYYGNSPWFFDVWGAGTTVTVSS
VL: DIQMTQTTSSLSASLGDRVTISCNASQGINKYLNWYQQKPDGTVKLLIYYTSTLHSGVPSRFSGSGSGTDYSLTINNLEPEDIATYYCQQYTKLPFTFGSGTKLEIK
notes: murine monoclonal IgG, kappa, from hybridoma; also called murine MAb3
With B1 the EC50 [1] was 7.6 nM, the EC50 [2] was 4 nM and the binding result (mLAMP1_ΔGYQTI) was “no binding”.

B2: MAb1 (antibody, mouse IgG2a, kappa)
heavy: QVQLQQSGAELVKPGASVKMSCKASGYIFTNYNIHWVKKSPGQGLEWIGAIYPGNGDAPYSQKFKDKATLTADKSSSTTYMQLSRLTSEDSAVYYCVRANWDVAFAYWGQGTLVSVSAAKTTAPSVYPLAPVCGDTTGSSVTLGCLVKGYFPEPVTLTWNSGSLSSGVHTFPAVLQSDLYTLSSSVTVTSSTWPSQSITCNVAHPASSTKVDKKIEPRGPTIKPCPPCKCPAPNLLGGPSVFIFPPKIKDVLMISLSPIVTCVVVDVSEDDPDVQISWFVNNVEVHTAQTQTHREDYNSTLRVVSALPIQHQDWMSGKEFKCKVNNKDLPAPIERTISKPKGSVRAPQVYVLPPPEEEMTKKQVTLTCMVTDFMPEDIYVEWTNNGKTELNYKNTEPVLDSDGSYFMYSKLRVEKKNWVERNSYSCSVVHEGLHNHHTTKSFSRTPGK
light: DIQMTQSPPSLSASLGGKVTITCKASQDIDRYMAWYQDKPGKGPRLLIHDTSTLQPGIPSRFSGSGSGRDYSFSISNLEPEDIATYYCLQYDNLWTFGGGTKLEIKRADAAPTVSIFPPSSEQLTSGGASVVCFLNNFYPKDINVKWKIDGSERQNGVLNSWTDQDSKDSTYSMSSTLTLTKDEYERHNSYTCEATHKTSTSPIVKSFNRNEC
notes: murine monoclonal IgG, kappa, from hybridoma; also called murine MAb1
Binder B2 has a mean fluorescence (LAMP1_mseq4_ΔGYQTI) of 891, a mean fluorescence (hLAMP1_ΔGYQTI) of 1750 and an EC50 [3] of 4.9 nM.

B3: huMAb1_1 (antibody, human IgG1, kappa)
heavy: not shown
light: DIQMTQSPSSLSASVGDRVTITCKASQDIDRYMAWYQDKPGKAPRLLIHDTSTLQSGVPSRFSGSGSGRDYTLTISNLEPEDFATYYCLQYDNLWTFGGGTKVEIKRTVAAPSVFIFPPSDEQLKSGTASVVCLLNNFYPREAKVQWKVDNALQSGNSQESVTEQDSKDSTYSLSSTLTLSKADYEKHKVYACEVTHQGLSSPVTKSFNRGEC
notes: humanized, VH1-huIgG1 and VL1-huCk
For B3, the “ADCP Mean EC50, HCT116 huLAMP1 clone 4, antigen density 20 000” value [4] was 0.73 nM, the “ADCP Mean EC50, HCT116 huLAMP1 clone 5, antigen density 300 000” value [4] was 0.33 nM and the “ADCP Mean EC50, HCT116 huLAMP1 clone 8, antigen density 100 000” value [4] was 0.43 nM. For the same binder, the “ADCP Mean EC50, HCT116 huLAMP1 clone 12, antigen density 2500” value [4] was 0.65 nM, the EC50 [5] was 15 nM and the EC50 [6] was 30.1 nM.
